Laboratory results from paper PMC4811699 (Biochemistry, 2016).

Target: the molecule itself
Assay: crystal structure

B1: Methanococcus jannaschii Thi4 (thiazole synthase) (enzyme)
chain: MVNLMNIKDIKLNADETKTTKAILKASFDMWLDIVEADVVIVGAGPSGLTCARYLAKEGFKVVVLERHLAFGGGTWGGGMGFPYIVVEEPADELLREVGIKLIDMGDGYYVADSVEVPAKLAVAAMDAGAKILTGIVVEDLILREDGVAGVVINSYAIERAGLHIDPLTIRSKVVVDATGHEASIVNILVKKNKLEADVPGEKSMWAEKGENALLRNTREVYPNLFVCGMAANASHGGYRMGAIFGGMYLSGKLCAELITEKLKNKE
  stoichiometry N: 8
